Experimental findings from publication PMC5750214 are described below.

Experiment [1] addresses mouse aortic AT1a receptor (mouse (endogenous in aorta)) (UniProt P29754). As to the kind of experiment: radioligand binding; saturation: [125I]-Ang II on the aortic membrane fraction of WT control mice; non-specific binding subtracted.
The target is the same in experiment [2]. As to the kind of experiment: radioligand binding; saturation: [125I]-Ang II on the aortic membrane fraction of WT mice with HHcy (fed Hcy); non-specific binding subtracted.

mouse aortic AT1a receptor (mouse (endogenous in aorta)), sequence (P29754 whole entry): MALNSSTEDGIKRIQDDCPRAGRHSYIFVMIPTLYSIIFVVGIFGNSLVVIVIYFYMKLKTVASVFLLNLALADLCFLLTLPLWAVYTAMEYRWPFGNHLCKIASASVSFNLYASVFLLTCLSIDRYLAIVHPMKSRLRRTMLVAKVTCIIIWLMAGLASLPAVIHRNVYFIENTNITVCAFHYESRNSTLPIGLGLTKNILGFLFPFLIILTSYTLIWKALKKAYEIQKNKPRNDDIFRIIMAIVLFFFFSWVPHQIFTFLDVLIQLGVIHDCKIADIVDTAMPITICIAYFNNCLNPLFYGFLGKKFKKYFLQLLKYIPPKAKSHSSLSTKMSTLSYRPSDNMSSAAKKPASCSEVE

As to [125I]-Angiotensin II (peptide), the Kd in experiment [1] was 36.4 nM; in experiment [2], 43.2 nM.

One may read the Kd as the free concentration of one partner at which half of the binding sites on the other are occupied at equilibrium, for simple one-to-one binding. Higher therefore signals lower affinity.
